Results from publication PMC4470385.

Molecular target: Von Willebrand factor (VWF) (UniProt P04275)
Assay: ELISA

| Substance | Kd |
| --- | --- |
| FVIII 336(P4-P3')562/Ala108Ile variant (B-domainless) (natural protein) | 0.91 nM |
| WT FVIII (B-domainless factor VIII, lacking residues Gln744-Ser1637) (natural protein) | 0.95 nM |
| FVIII 336(P4-P3')562/Ala108Ile/Asp519Val/Glu665Val variant (B-domainless) (natural protein) | 1 nM |
| FVIII 336(P4-P3')562 variant (B-domainless) (natural protein) | 0.82 nM |
| FVIII Ala108Ile variant (B-domainless) (natural protein) | 0.97 nM |
| FVIII 336(P4-P3')562/Asp519Val/Glu665Val variant (B-domainless) (natural protein) | 0.87 nM |
| FVIII Asp519Val/Glu665Val variant (B-domainless) (natural protein) | 0.9 nM |
